According to PMC9482650, “Quantitative fragmentomics allow affinity mapping of interactomes” (Nature Communications, 2022):

Target: T1, DFNB31_2, Q9P202
T1 sequence (Q9P202 274-371, limits assumed, looked up): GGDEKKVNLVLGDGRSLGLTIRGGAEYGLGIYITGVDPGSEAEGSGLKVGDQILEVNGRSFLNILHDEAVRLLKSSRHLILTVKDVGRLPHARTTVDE
Experiment: holdup assay
Design: key: below the threshold = too weak to quantify, mostly under pKd 3.1 to 4
Settings: plain residues with an end cap or a label only (N-terminal biotin on a linker: ado-ado)

Binder	pKd
SRSVVESDEL [MYPN, Q86TC9]	below the threshold
KRPEMTSSSV [MUC3A, MUC3B, Q02505;Q9H195]	below the threshold

Target: T2, DFNB31_3, Q9P202
T2 sequence (Q9P202 811-907, limits assumed, looked up): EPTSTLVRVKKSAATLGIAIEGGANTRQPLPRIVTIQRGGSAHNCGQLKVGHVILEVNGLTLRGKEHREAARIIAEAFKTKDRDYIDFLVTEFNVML
Experiment: holdup assay
Design: key: below the threshold = too weak to quantify, mostly under pKd 3.1 to 4
Settings: plain residues with an end cap or a label only (N-terminal biotin on a linker: ado-ado)

Binder	pKd
SRSVVESDEL [MYPN, Q86TC9]	below the threshold
KRPEMTSSSV [MUC3A, MUC3B, Q02505;Q9H195]	below the threshold

Target: DLG1_1, Q12959
Experiment: holdup assay
Design: key: below the threshold = too weak to quantify, mostly under pKd 3.1 to 4
Settings: plain residues with an end cap or a label only (N-terminal biotin on a linker: ado-ado)

Binder	pKd
SRSVVESDEL [MYPN, Q86TC9]	below the threshold
KRPEMTSSSV [MUC3A, MUC3B, Q02505;Q9H195]	1.76

Target: T3, DLG3_3, Q92796
T3 sequence (Q92796 374-475, limits assumed, looked up): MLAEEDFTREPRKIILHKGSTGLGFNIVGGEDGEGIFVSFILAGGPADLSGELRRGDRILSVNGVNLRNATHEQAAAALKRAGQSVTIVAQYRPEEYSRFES
Experiment: holdup assay
Design: key: below the threshold = too weak to quantify, mostly under pKd 3.1 to 4
Settings: plain residues with an end cap or a label only (N-terminal biotin on a linker: ado-ado)

Binder	pKd
SRSVVESDEL [MYPN, Q86TC9]	below the threshold
KRPEMTSSSV [MUC3A, MUC3B, Q02505;Q9H195]	1.84

Target: T4, DVL3, Q92997
T4 sequence (Q92997 244-331, limits assumed, looked up): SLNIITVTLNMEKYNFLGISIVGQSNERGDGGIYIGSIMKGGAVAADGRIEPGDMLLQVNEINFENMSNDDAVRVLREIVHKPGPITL
Experiment: holdup assay
Design: key: below the threshold = too weak to quantify, mostly under pKd 3.1 to 4
Settings: plain residues with an end cap or a label only (N-terminal biotin on a linker: ado-ado)

Binder	pKd
SRSVVESDEL [MYPN, Q86TC9]	below the threshold
KRPEMTSSSV [MUC3A, MUC3B, Q02505;Q9H195]	below the threshold

Target: FRMPD3, Q5JV73
Sequence (Q5JV73 12-100): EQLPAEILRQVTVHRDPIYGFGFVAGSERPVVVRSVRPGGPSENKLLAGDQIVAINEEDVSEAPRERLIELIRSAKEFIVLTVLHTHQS
Experiment: holdup assay
Design: key: below the threshold = too weak to quantify, mostly under pKd 3.1 to 4
Settings: plain residues with an end cap or a label only (N-terminal biotin on a linker: ado-ado)

Binder	pKd
SRSVVESDEL [MYPN, Q86TC9]	below the threshold
KRPEMTSSSV [MUC3A, MUC3B, Q02505;Q9H195]	below the threshold

Target: T5, GRIP1_5, Q9Y3R0
T5 sequence (Q9Y3R0 568-668, limits assumed, looked up): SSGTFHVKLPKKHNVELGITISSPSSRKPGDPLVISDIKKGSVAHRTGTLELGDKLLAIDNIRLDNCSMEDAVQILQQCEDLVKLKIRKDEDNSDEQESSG
Experiment: holdup assay
Design: key: below the threshold = too weak to quantify, mostly under pKd 3.1 to 4
Settings: plain residues with an end cap or a label only (N-terminal biotin on a linker: ado-ado)

Binder	pKd
SRSVVESDEL [MYPN, Q86TC9]	below the threshold
KRPEMTSSSV [MUC3A, MUC3B, Q02505;Q9H195]	below the threshold

Target: T6, GRIP1_7, Q9Y3R0
T6 sequence (Q9Y3R0 999-1096, limits assumed, looked up): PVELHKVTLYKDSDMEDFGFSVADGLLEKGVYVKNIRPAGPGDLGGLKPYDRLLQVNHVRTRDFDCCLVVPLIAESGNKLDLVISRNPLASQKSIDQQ
Experiment: holdup assay
Design: key: below the threshold = too weak to quantify, mostly under pKd 3.1 to 4
Settings: plain residues with an end cap or a label only (N-terminal biotin on a linker: ado-ado)

Binder	pKd
SRSVVESDEL [MYPN, Q86TC9]	below the threshold
KRPEMTSSSV [MUC3A, MUC3B, Q02505;Q9H195]	below the threshold

Target: GRIP2_6, Q9C0E4
Sequence (Q9C0E4 648-740): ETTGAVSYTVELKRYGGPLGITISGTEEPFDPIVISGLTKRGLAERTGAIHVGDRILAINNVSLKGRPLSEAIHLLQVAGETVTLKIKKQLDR
Experiment: holdup assay
Design: key: below the threshold = too weak to quantify, mostly under pKd 3.1 to 4
Settings: plain residues with an end cap or a label only (N-terminal biotin on a linker: ado-ado)

Binder	pKd
SRSVVESDEL [MYPN, Q86TC9]	3.95
KRPEMTSSSV [MUC3A, MUC3B, Q02505;Q9H195]	below the threshold

Target: IL16_3, Q14005
Sequence (Q14005 1107-1207): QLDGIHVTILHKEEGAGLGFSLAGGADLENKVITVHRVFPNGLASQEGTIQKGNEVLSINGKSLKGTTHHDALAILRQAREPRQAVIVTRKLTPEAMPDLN
Experiment: holdup assay
Design: key: below the threshold = too weak to quantify, mostly under pKd 3.1 to 4
Settings: plain residues with an end cap or a label only (N-terminal biotin on a linker: ado-ado)

Binder	pKd
SRSVVESDEL [MYPN, Q86TC9]	below the threshold
KRPEMTSSSV [MUC3A, MUC3B, Q02505;Q9H195]	below the threshold

Target: Inadl_4, Q8NI35
Sequence (Q8NI35 547-651): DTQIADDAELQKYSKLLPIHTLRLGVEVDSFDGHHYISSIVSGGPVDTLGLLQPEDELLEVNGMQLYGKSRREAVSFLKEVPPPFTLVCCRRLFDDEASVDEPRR
Experiment: holdup assay
Design: key: below the threshold = too weak to quantify, mostly under pKd 3.1 to 4
Settings: plain residues with an end cap or a label only (N-terminal biotin on a linker: ado-ado)

Binder	pKd
SRSVVESDEL [MYPN, Q86TC9]	below the threshold
KRPEMTSSSV [MUC3A, MUC3B, Q02505;Q9H195]	below the threshold

Target: LIMK2, P53671
Sequence (P53671 143-248): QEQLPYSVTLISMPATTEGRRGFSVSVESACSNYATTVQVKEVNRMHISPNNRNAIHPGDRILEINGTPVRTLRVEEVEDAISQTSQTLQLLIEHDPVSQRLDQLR
Experiment: holdup assay
Design: key: below the threshold = too weak to quantify, mostly under pKd 3.1 to 4
Settings: plain residues with an end cap or a label only (N-terminal biotin on a linker: ado-ado)

Binder	pKd
SRSVVESDEL [MYPN, Q86TC9]	below the threshold

Target: T7, LIN7C, Q9NUP9
T7 sequence (Q9NUP9 88-185, limits assumed, looked up): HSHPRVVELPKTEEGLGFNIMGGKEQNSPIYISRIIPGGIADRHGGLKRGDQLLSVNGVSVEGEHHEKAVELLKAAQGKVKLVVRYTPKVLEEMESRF
Experiment: holdup assay
Design: key: below the threshold = too weak to quantify, mostly under pKd 3.1 to 4
Settings: plain residues with an end cap or a label only (N-terminal biotin on a linker: ado-ado)

Binder	pKd
SRSVVESDEL [MYPN, Q86TC9]	below the threshold

Target: LNX1_1, Q8TBB1
Sequence (Q8TBB1 261-371): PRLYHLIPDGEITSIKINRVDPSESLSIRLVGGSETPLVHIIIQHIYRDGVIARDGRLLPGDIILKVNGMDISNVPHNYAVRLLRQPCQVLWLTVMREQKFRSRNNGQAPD
Experiment: holdup assay
Design: key: below the threshold = too weak to quantify, mostly under pKd 3.1 to 4
Settings: plain residues with an end cap or a label only (N-terminal biotin on a linker: ado-ado)

Binder	pKd
SRSVVESDEL [MYPN, Q86TC9]	below the threshold
KRPEMTSSSV [MUC3A, MUC3B, Q02505;Q9H195]	1.88

Target: T8, LNX2_2, Q8N448
T8 sequence (Q8N448 334-432, limits assumed, looked up): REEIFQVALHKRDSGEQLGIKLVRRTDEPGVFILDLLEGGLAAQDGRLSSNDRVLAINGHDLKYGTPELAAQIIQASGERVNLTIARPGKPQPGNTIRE
Experiment: holdup assay
Design: key: below the threshold = too weak to quantify, mostly under pKd 3.1 to 4
Settings: plain residues with an end cap or a label only (N-terminal biotin on a linker: ado-ado)

Binder	pKd
SRSVVESDEL [MYPN, Q86TC9]	below the threshold

Target: T9, LNX2_3, Q8N448
T9 sequence (Q8N448 463-564, limits assumed, looked up): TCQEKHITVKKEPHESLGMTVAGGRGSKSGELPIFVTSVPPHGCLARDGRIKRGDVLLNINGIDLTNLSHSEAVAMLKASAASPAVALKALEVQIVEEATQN
Experiment: holdup assay
Design: key: below the threshold = too weak to quantify, mostly under pKd 3.1 to 4
Settings: plain residues with an end cap or a label only (N-terminal biotin on a linker: ado-ado)

Binder	pKd
SRSVVESDEL [MYPN, Q86TC9]	below the threshold
KRPEMTSSSV [MUC3A, MUC3B, Q02505;Q9H195]	below the threshold

Target: MAGI1_2, Q96QZ7
Sequence (Q96QZ7 456-580): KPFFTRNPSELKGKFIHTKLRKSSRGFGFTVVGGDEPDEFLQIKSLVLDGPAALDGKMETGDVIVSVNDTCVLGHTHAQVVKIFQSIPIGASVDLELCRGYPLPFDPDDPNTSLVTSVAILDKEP
Experiment: holdup assay
Design: key: below the threshold = too weak to quantify, mostly under pKd 3.1 to 4
Settings: plain residues with an end cap or a label only (N-terminal biotin on a linker: ado-ado)

Binder	pKd
SRSVVESDEL [MYPN, Q86TC9]	below the threshold

Target: MAGI2_3, Q86UL8
Sequence (Q86UL8 600-682): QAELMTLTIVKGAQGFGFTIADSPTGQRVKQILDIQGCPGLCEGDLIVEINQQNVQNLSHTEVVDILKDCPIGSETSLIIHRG
Experiment: holdup assay
Design: key: below the threshold = too weak to quantify, mostly under pKd 3.1 to 4
Settings: plain residues with an end cap or a label only (N-terminal biotin on a linker: ado-ado)

Binder	pKd
SRSVVESDEL [MYPN, Q86TC9]	below the threshold

Target: T10, MPP2, Q14168
T10 sequence (Q14168 180-250, limits assumed, looked up): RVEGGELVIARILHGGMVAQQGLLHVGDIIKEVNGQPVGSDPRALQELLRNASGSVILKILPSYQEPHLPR
Experiment: holdup assay
Design: key: below the threshold = too weak to quantify, mostly under pKd 3.1 to 4
Settings: plain residues with an end cap or a label only (N-terminal biotin on a linker: ado-ado)

Binder	pKd
SRSVVESDEL [MYPN, Q86TC9]	below the threshold
KRPEMTSSSV [MUC3A, MUC3B, Q02505;Q9H195]	below the threshold

Target: T11, NHERF3_1, Q5T2W1
T11 sequence (Q5T2W1 4-100, limits assumed, looked up): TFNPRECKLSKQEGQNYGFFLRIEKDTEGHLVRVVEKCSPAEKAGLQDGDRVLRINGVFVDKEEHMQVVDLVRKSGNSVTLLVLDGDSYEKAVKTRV
Experiment: holdup assay
Design: key: below the threshold = too weak to quantify, mostly under pKd 3.1 to 4
Settings: plain residues with an end cap or a label only (N-terminal biotin on a linker: ado-ado)

Binder	pKd
SRSVVESDEL [MYPN, Q86TC9]	5.44

Target: NHERF4_1, Q86UT5-2
Sequence (Q86UT5 other isoform, or with tags, fused parts or gaps): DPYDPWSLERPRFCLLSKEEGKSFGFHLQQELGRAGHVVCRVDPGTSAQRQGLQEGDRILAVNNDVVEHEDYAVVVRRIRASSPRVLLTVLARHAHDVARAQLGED
Experiment: holdup assay
Design: key: below the threshold = too weak to quantify, mostly under pKd 3.1 to 4
Settings: plain residues with an end cap or a label only (N-terminal biotin on a linker: ado-ado)

Binder	pKd
SRSVVESDEL [MYPN, Q86TC9]	4.29
KRPEMTSSSV [MUC3A, MUC3B, Q02505;Q9H195]	3.58

Target: T12, PTPN13_1, Q12923
T12 sequence (Q12923 1088-1188, limits assumed, looked up): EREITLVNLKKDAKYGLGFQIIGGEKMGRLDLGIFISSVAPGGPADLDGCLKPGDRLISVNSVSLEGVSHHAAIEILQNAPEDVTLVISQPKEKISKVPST
Experiment: holdup assay
Design: key: below the threshold = too weak to quantify, mostly under pKd 3.1 to 4
Settings: plain residues with an end cap or a label only (N-terminal biotin on a linker: ado-ado)

Binder	pKd
SRSVVESDEL [MYPN, Q86TC9]	below the threshold

Target: PTPN3, P26045
Sequence (P26045 505-587): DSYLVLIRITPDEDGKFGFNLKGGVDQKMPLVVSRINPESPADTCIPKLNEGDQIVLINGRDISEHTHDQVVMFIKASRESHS
Experiment: holdup assay
Design: key: below the threshold = too weak to quantify, mostly under pKd 3.1 to 4
Settings: plain residues with an end cap or a label only (N-terminal biotin on a linker: ado-ado)

Binder	pKd
SRSVVESDEL [MYPN, Q86TC9]	3.99

Target: SCRIB_2, Q14160
Sequence (Q14160 857-960): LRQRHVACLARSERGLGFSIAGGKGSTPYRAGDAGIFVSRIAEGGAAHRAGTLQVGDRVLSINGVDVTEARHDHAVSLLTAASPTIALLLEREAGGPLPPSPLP
Experiment: holdup assay
Design: key: below the threshold = too weak to quantify, mostly under pKd 3.1 to 4
Settings: plain residues with an end cap or a label only (N-terminal biotin on a linker: ado-ado)

Binder	pKd
SRSVVESDEL [MYPN, Q86TC9]	below the threshold

Target: SCRIB_3, Q14160
Sequence (Q14160 999-1103): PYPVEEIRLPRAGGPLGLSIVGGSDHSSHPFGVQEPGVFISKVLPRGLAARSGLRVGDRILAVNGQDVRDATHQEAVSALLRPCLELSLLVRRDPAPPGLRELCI
Experiment: holdup assay
Design: key: below the threshold = too weak to quantify, mostly under pKd 3.1 to 4
Settings: plain residues with an end cap or a label only (N-terminal biotin on a linker: ado-ado)

Binder	pKd
SRSVVESDEL [MYPN, Q86TC9]	3.51
KRPEMTSSSV [MUC3A, MUC3B, Q02505;Q9H195]	1.79

Target: TJP2_1, Q9UDY2
Sequence (Q9UDY2 24-128): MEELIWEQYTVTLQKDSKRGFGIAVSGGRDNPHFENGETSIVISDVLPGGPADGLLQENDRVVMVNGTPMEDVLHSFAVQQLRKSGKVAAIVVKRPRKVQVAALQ
Experiment: holdup assay
Design: key: below the threshold = too weak to quantify, mostly under pKd 3.1 to 4
Settings: plain residues with an end cap or a label only (N-terminal biotin on a linker: ado-ado)

Binder	pKd
SRSVVESDEL [MYPN, Q86TC9]	below the threshold
KRPEMTSSSV [MUC3A, MUC3B, Q02505;Q9H195]	below the threshold
